Laboratory results: the supplement of paper PMC9112550, “Optimization of the antimicrobial peptide Bac7 by deep mutational scanning” (BMC Biology, 2022)

The sequences below were run on Escherichia coli TOP10 (assay: shrunken log2 fold change of peptide-encoding DNA abundance (4.5 h post-induction vs induction); higher = less antimicrobial activity (less host growth inhibition)). Conditions: time post-induction: 4.5 h; library: site-saturation at positions 5, 18, 19, 20.
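Note: peptides expressed intracellularly from a pBAD plasmid library in pooled LB shake-flask culture, induced with 0.3% L-arabinose, DNA abundance read by NGS, three biological replicates, DESeq2 with apeglm shrinkage.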

Sequence	shrunken log2 fold change
RRIRCRPPRLPRPRPRPIDQPRP	-0.0719
RRIRCRPPRLPRPRPRPIDVPRP	-0.856
RRIRCRPPRLPRPRPRPIEYPRP	-0.148
RRIRCRPPRLPRPRPRPIFCPRP	-0.339
RRIRCRPPRLPRPRPRPIFGPRP	-0.0692
RRIRCRPPRLPRPRPRPIHWPRP	-0.363
RRIRCRPPRLPRPRPRPIIQPRP	-0.465
RRIRCRPPRLPRPRPRPIKHPRP	-0.389
RRIRCRPPRLPRPRPRPILCPRP	2.87
RRIRCRPPRLPRPRPRPILYPRP	-0.716
RRIRCRPPRLPRPRPRPIMDPRP	-0.5
RRIRCRPPRLPRPRPRPIMPPRP	-0.11
RRIRCRPPRLPRPRPRPINIPRP	-0.702
RRIRCRPPRLPRPRPRPIRLPRP	-0.0542
RRIRCRPPRLPRPRPRPISSPRP	-0.0694
RRIRCRPPRLPRPRPRPITIPRP	-0.261
RRIRCRPPRLPRPRPRPITWPRP	-0.189
RRIRCRPPRLPRPRPRPIVFPRP	-0.31
RRIRCRPPRLPRPRPRPIWSPRP	0.162
RRIRCRPPRLPRPRPRPIYTPRP	-0.234
RRIRCRPPRLPRPRPRPKAFPRP	-0.0921
RRIRCRPPRLPRPRPRPKAIPRP	-0.0563
RRIRCRPPRLPRPRPRPKAVPRP	0.564
RRIRCRPPRLPRPRPRPKCAPRP	0.121
RRIRCRPPRLPRPRPRPKCNPRP	-0.201

Sequence	shrunken log2 fold change
RRIRCRPPRLPRPRPRPKCVPRP	-0.0957
RRIRCRPPRLPRPRPRPKDCPRP	-0.0763
RRIRCRPPRLPRPRPRPKDGPRP	0.408
RRIRCRPPRLPRPRPRPKEIPRP	0.0368
RRIRCRPPRLPRPRPRPKEVPRP	-0.289
RRIRCRPPRLPRPRPRPKGDPRP	-0.0659
RRIRCRPPRLPRPRPRPKGSPRP	0.189
RRIRCRPPRLPRPRPRPKGYPRP	-0.0908
RRIRCRPPRLPRPRPRPKHAPRP	0.302
RRIRCRPPRLPRPRPRPKHHPRP	-0.32
RRIRCRPPRLPRPRPRPKIRPRP	0.0994
RRIRCRPPRLPRPRPRPKLLPRP	-0.172
RRIRCRPPRLPRPRPRPKMIPRP	-0.727
RRIRCRPPRLPRPRPRPKPDPRP	0.296
RRIRCRPPRLPRPRPRPKPEPRP	0.377
RRIRCRPPRLPRPRPRPKPLPRP	0.12
RRIRCRPPRLPRPRPRPKQRPRP	0.222
RRIRCRPPRLPRPRPRPKQSPRP	0.107
RRIRCRPPRLPRPRPRPKSRPRP	0.0706
RRIRCRPPRLPRPRPRPKTAPRP	0.39
RRIRCRPPRLPRPRPRPKTDPRP	-0.0884
RRIRCRPPRLPRPRPRPKTIPRP	-0.141
RRIRCRPPRLPRPRPRPKTPPRP	0.827
RRIRCRPPRLPRPRPRPKVEPRP	0.345
RRIRCRPPRLPRPRPRPKVNPRP	-0.542

Sequence	shrunken log2 fold change
RRIRCRPPRLPRPRPRPKWVPRP	0.0707
RRIRCRPPRLPRPRPRPKYGPRP	0.0136
RRIRCRPPRLPRPRPRPKYHPRP	-0.743
RRIRCRPPRLPRPRPRPLCCPRP	-0.237
RRIRCRPPRLPRPRPRPLCWPRP	0.132
RRIRCRPPRLPRPRPRPLDCPRP	0.0147
RRIRCRPPRLPRPRPRPLDEPRP	0.151
RRIRCRPPRLPRPRPRPLDFPRP	-0.175
RRIRCRPPRLPRPRPRPLDNPRP	-0.235
RRIRCRPPRLPRPRPRPLERPRP	-0.199
RRIRCRPPRLPRPRPRPLFLPRP	-0.601
RRIRCRPPRLPRPRPRPLGKPRP	-0.101
RRIRCRPPRLPRPRPRPLHHPRP	-0.469
RRIRCRPPRLPRPRPRPLHKPRP	-0.0345
RRIRCRPPRLPRPRPRPLIKPRP	-0.311
RRIRCRPPRLPRPRPRPLLYPRP	-0.572
RRIRCRPPRLPRPRPRPLMQPRP	0.0849
RRIRCRPPRLPRPRPRPLNEPRP	-0.0566
RRIRCRPPRLPRPRPRPLNWPRP	0.0486
RRIRCRPPRLPRPRPRPLNYPRP	0.101
RRIRCRPPRLPRPRPRPLPPPRP	0.733
RRIRCRPPRLPRPRPRPLPTPRP	0.63
RRIRCRPPRLPRPRPRPLQMPRP	-0.182
RRIRCRPPRLPRPRPRPLQRPRP	0.203
RRIRCRPPRLPRPRPRPLSPPRP	0.107

Sequence	shrunken log2 fold change
RRIRCRPPRLPRPRPRPLTTPRP	0.729
RRIRCRPPRLPRPRPRPLVYPRP	-0.548
RRIRCRPPRLPRPRPRPLWVPRP	-0.1
RRIRCRPPRLPRPRPRPLYPPRP	-0.729
RRIRCRPPRLPRPRPRPMEKPRP	0.0833
RRIRCRPPRLPRPRPRPMFAPRP	0.186
RRIRCRPPRLPRPRPRPMFQPRP	-0.151
RRIRCRPPRLPRPRPRPMGMPRP	-0.184
RRIRCRPPRLPRPRPRPMGTPRP	-0.159
RRIRCRPPRLPRPRPRPMGVPRP	-0.152
RRIRCRPPRLPRPRPRPMGYPRP	-0.0984
RRIRCRPPRLPRPRPRPMHMPRP	-0.14
RRIRCRPPRLPRPRPRPMLEPRP	0.293
RRIRCRPPRLPRPRPRPMLRPRP	0.184
RRIRCRPPRLPRPRPRPMNIPRP	-0.693
RRIRCRPPRLPRPRPRPMNKPRP	-0.32
RRIRCRPPRLPRPRPRPMPGPRP	0.0112
RRIRCRPPRLPRPRPRPMQFPRP	-0.113
RRIRCRPPRLPRPRPRPMQMPRP	0.0279
RRIRCRPPRLPRPRPRPMRCPRP	0.404
RRIRCRPPRLPRPRPRPMRHPRP	-0.0878
RRIRCRPPRLPRPRPRPMRWPRP	0.325
RRIRCRPPRLPRPRPRPMSAPRP	-0.0757
RRIRCRPPRLPRPRPRPMTGPRP	-0.103
RRIRCRPPRLPRPRPRPMTLPRP	-0.135

Sequence	shrunken log2 fold change
RRIRCRPPRLPRPRPRPMWCPRP	0.148
RRIRCRPPRLPRPRPRPNAWPRP	-0.247
RRIRCRPPRLPRPRPRPNCHPRP	-0.314
RRIRCRPPRLPRPRPRPNDNPRP	-0.692
RRIRCRPPRLPRPRPRPNFGPRP	-0.0314
RRIRCRPPRLPRPRPRPNFRPRP	0.0821
RRIRCRPPRLPRPRPRPNGIPRP	-0.117
RRIRCRPPRLPRPRPRPNGKPRP	-0.8
RRIRCRPPRLPRPRPRPNHNPRP	-0.975
RRIRCRPPRLPRPRPRPNIIPRP	0.796
RRIRCRPPRLPRPRPRPNKPPRP	0.0511
RRIRCRPPRLPRPRPRPNNQPRP	-0.75
RRIRCRPPRLPRPRPRPNNWPRP	-0.362
RRIRCRPPRLPRPRPRPNRAPRP	0.00805
RRIRCRPPRLPRPRPRPNTQPRP	-0.0903
RRIRCRPPRLPRPRPRPNVDPRP	-0.215
RRIRCRPPRLPRPRPRPNVFPRP	-0.24
RRIRCRPPRLPRPRPRPNVGPRP	0.0143
RRIRCRPPRLPRPRPRPNVQPRP	-0.0319
RRIRCRPPRLPRPRPRPNWFPRP	-0.201
RRIRCRPPRLPRPRPRPNWLPRP	-0.115
RRIRCRPPRLPRPRPRPNWMPRP	-0.805
RRIRCRPPRLPRPRPRPNWRPRP	0.437
RRIRCRPPRLPRPRPRPPELPRP	0.643
RRIRCRPPRLPRPRPRPPHRPRP	0.854

Sequence	shrunken log2 fold change
RRIRCRPPRLPRPRPRPPHYPRP	0.638
RRIRCRPPRLPRPRPRPPLCPRP	0.674
RRIRCRPPRLPRPRPRPPNAPRP	0.262
RRIRCRPPRLPRPRPRPPRSPRP	0.993
RRIRCRPPRLPRPRPRPPSMPRP	0.0264
RRIRCRPPRLPRPRPRPPTTPRP	0.353
RRIRCRPPRLPRPRPRPPVTPRP	0.0706
RRIRCRPPRLPRPRPRPPWYPRP	-0.0833
RRIRCRPPRLPRPRPRPPYQPRP	-0.138
RRIRCRPPRLPRPRPRPQADPRP	0.0688
RRIRCRPPRLPRPRPRPQCCPRP	0.254
RRIRCRPPRLPRPRPRPQCLPRP	-0.442
RRIRCRPPRLPRPRPRPQDQPRP	-0.101
RRIRCRPPRLPRPRPRPQDRPRP	-0.175
RRIRCRPPRLPRPRPRPQEKPRP	0.0587
RRIRCRPPRLPRPRPRPQEWPRP	0.00898
RRIRCRPPRLPRPRPRPQFHPRP	-0.635
RRIRCRPPRLPRPRPRPQFNPRP	-0.98
RRIRCRPPRLPRPRPRPQGCPRP	-0.0977
RRIRCRPPRLPRPRPRPQGDPRP	0.0138
RRIRCRPPRLPRPRPRPQGPPRP	0.353
RRIRCRPPRLPRPRPRPQHQPRP	-0.145
RRIRCRPPRLPRPRPRPQIGPRP	-0.00649
RRIRCRPPRLPRPRPRPQKFPRP	-0.638
RRIRCRPPRLPRPRPRPQLDPRP	-0.142
